Here are results for 51 variants from the RNAGym collection of RNA variant scans (doi:10.1101/gr.219683.116).

B1: mRNA-splicing (parent)
chain: AGUUGCUGCUGGGAGCUCCAGCACAGUGAAAUGGACAGAAGGGCAGAGCAA

Variants of B1 are the subject of this data set. Put plainly: exon inclusion enrichment index; higher = more inclusion; WT1 exon 5 minigene, HEK293.
With AGUUAUAUACGGGAGCUCCAGCACAGUGAAAUGGACAGAAGGGCAGAGCAA [G5A C6U U7A G8U C9A U10C], the “exon inclusion enrichment index” value was determined as 0.4.
On to AGUUAUAUAGGGGAGCUCCAGCACAGUGAAAUGGACAGAAGGGCAGAGCAA [G5A C6U U7A G8U C9A U10G], for which the “exon inclusion enrichment index” value came to 0.00356.
As for AGUUAUAUAAGGGAGCUCCAGCACAGUGAAAUGGACAGAAGGGCAGAGCAA [G5A C6U U7A G8U C9A U10A], the figure is 0.0162; as for AGUUAUAUAUGGGAGCAACAGCACAGUGAAAUGGACAGAAGGGCAGAGCAA [G5A C6U U7A G8U C9A U17A C18A], 0.0198.
As for AGUUAUAUAUGGGAGCAGCAGCACAGUGAAAUGGACAGAAGGGCAGAGCAA [G5A C6U U7A G8U C9A U17A C18G], the figure is 0.0258; as for AGUUAUAUAUGGGAGCAUCAGCACAGUGAAAUGGACAGAAGGGCAGAGCAA [G5A C6U U7A G8U C9A U17A C18U], 0.0116.
In the case of AGUUAUAUAUGGGAGCUCCAGCACAGUGAAAUGGACAGAAGGGCACAGCAA [G5A C6U U7A G8U C9A G46C], the “exon inclusion enrichment index” value came out at 0.0876.
With AGUUAUAUAUGGGAGCUCCAGCACAGUGAAAUGGACAGAAGGGCAUAGCAA [G5A C6U U7A G8U C9A G46U], the “exon inclusion enrichment index” value worked out at 0.0405.
For AGUUACUGAUGGGAGCUCCAGCACAGUGAAAUGGACAGAAGGGCAGAGCAA [G5A C9A], the “exon inclusion enrichment index” value is 0.851.
The result for AGUUACAGCCGGGAGCUCCAGCACAGUGAAAUGGACAGAAGGGCAGAGCAA [G5A U7A U10C] reads 1.84; that for AGUUAUAUAUGGGAGCACCAGCACAGUGAAAUGGACAGAAGGGCAGAGCAA [G5A C6U U7A G8U C9A U17A], 0.0566.
For the variant AGUUAUAUAUGGGAGCCCCAGCACAGUGAAAUGGACAGAAGGGCAGAGCAA [G5A C6U U7A G8U C9A U17C], the “exon inclusion enrichment index” value came out at 0.0376.
As for AGUUAUAUAUGGGAGCGCCAGCACAGUGAAAUGGACAGAAGGGCAGAGCAA [G5A C6U U7A G8U C9A U17G], the figure is 0.0456.
As for AGUUAUAUAGUGGAGCUCCAGCACAGUGAAAUGGACAGAAGGGCAGAGCAA [G5A C6U U7A G8U C9A U10G G11U], the figure is 0.014; as for AGUUAUAUAGAGGAGCUCCAGCACAGUGAAAUGGACAGAAGGGCAGAGCAA [G5A C6U U7A G8U C9A U10G G11A], 0.0194.
For the variant AGUUAUAUAGCGGAGCUCCAGCACAGUGAAAUGGACAGAAGGGCAGAGCAA [G5A C6U U7A G8U C9A U10G G11C], the “exon inclusion enrichment index” value came to 0.022.
For AGUUAUCACAGGGAGCUCCAGCACAGUGAAAUGGACAGAAGGGCAGAGCAA [G5A C6U U7C G8A U10A], the “exon inclusion enrichment index” value stood at 0.0761.
AGUUAUCACCGGGAGCUCCAGCACAGUGAAAUGGACAGAAGGGCAGAGCAA [G5A C6U U7C G8A U10C]: the “exon inclusion enrichment index” value was determined as 2.02.
AGUUACUUCCGGGAGCUCCAGCACAGUGAAAUGGACAGAAGGGCAGAGCAA [G5A G8U U10C]: the “exon inclusion enrichment index” value was 1.78.
With AGUUAUAUAUGGGAGCUCCAGCACAGUGAAAUGGACAGAAGGGCACGGCAA [G5A C6U U7A G8U C9A G46C A47G], the “exon inclusion enrichment index” value worked out at 0.159.
The result for AGUUAUAUAUGGGAGCUCCAGCACAGUGAAAUGGACAGAAGGGCACUGCAA [G5A C6U U7A G8U C9A G46C A47U] reads 0.0869.
Regarding AGUUAUAUAUGGGAGCUCCAGCACAGUGAAAUGGACAGAAGGGCACCGCAA [G5A C6U U7A G8U C9A G46C A47C], the “exon inclusion enrichment index” value turned out to be 0.144.
On to AGUUAUAUCAGGGAGCUCCAGCACAGUGAAAUGGACAGAAGGGCAGAGCAA [G5A C6U U7A G8U U10A], for which the “exon inclusion enrichment index” value is 0.0329.
As for AGUUAUAUCCGGGAGCUCCAGCACAGUGAAAUGGACAGAAGGGCAGAGCAA [G5A C6U U7A G8U U10C], the figure is 1.03.
On to AGUUAUAUCGGGGAGCUCCAGCACAGUGAAAUGGACAGAAGGGCAGAGCAA [G5A C6U U7A G8U U10G], for which the “exon inclusion enrichment index” value was determined as 0.317.
The result for AGUUAUCGACGGGAGCUCCAGCACAGUGAAAUGGACAGAAGGGCAGAGCAA [G5A C6U U7C C9A U10C] reads 2.91; that for AGUUACAUAUGGGAGCUCCAGCACAGUGAAAUGGACAGAAGGGCAGAGCAA [G5A U7A G8U C9A], 0.262; that for AGUUAUAUAUGGGAGCCUCAGCACAGUGAAAUGGACAGAAGGGCAGAGCAA [G5A C6U U7A G8U C9A U17C C18U], 0.0327.
Consider AGUUAUAUAUGGGAGCCACAGCACAGUGAAAUGGACAGAAGGGCAGAGCAA [G5A C6U U7A G8U C9A U17C C18A], for which the “exon inclusion enrichment index” value is 0.0363.
Take AGUUAUAUAUGGGAGCCGCAGCACAGUGAAAUGGACAGAAGGGCAGAGCAA [G5A C6U U7A G8U C9A U17C C18G]: the “exon inclusion enrichment index” value worked out at 0.0591.
On to AGUUAUCGCCGGGAGCUCCAGCACAGUGAAAUGGACAGAAGGGCAGAGCAA [G5A C6U U7C U10C], for which the “exon inclusion enrichment index” value amounted to 3.3.
The result for AGUUAUAUGUGGGAGCUCCAGCACAGUGAAAUGGACAGAAGGGCAGAGCAA [G5A C6U U7A G8U C9G] reads 0.0579; that for AGUUAUAUUUGGGAGCUCCAGCACAGUGAAAUGGACAGAAGGGCAGAGCAA [G5A C6U U7A G8U C9U], 0.0721.
As for AGUUAUAUAUGGGAGCUCCAGCACAGUGAAAUGGACAGAAGGGCAACGCAA [G5A C6U U7A G8U C9A G46A A47C], the figure is 0.232; as for AGUUAUAUAUGGGAGCUCCAGCACAGUGAAAUGGACAGAAGGGCAAUGCAA [G5A C6U U7A G8U C9A G46A A47U], 0.0808.
Consider AGUUAUAUAUGGGAGCUCCAGCACAGUGAAAUGGACAGAAGGGCAAGGCAA [G5A C6U U7A G8U C9A G46A A47G], for which the “exon inclusion enrichment index” value is 0.0237.
AGUUACUCUCGGGAGCUCCAGCACAGUGAAAUGGACAGAAGGGCAGAGCAA [G5A G8C C9U U10C]: the “exon inclusion enrichment index” value was found to be 1.05.
Turning to AGUUAUAUUCGGGAGCUCCAGCACAGUGAAAUGGACAGAAGGGCAGAGCAA [G5A C6U U7A G8U C9U U10C], the “exon inclusion enrichment index” value was found to be 0.453.
With AGUUAUAUUGGGGAGCUCCAGCACAGUGAAAUGGACAGAAGGGCAGAGCAA [G5A C6U U7A G8U C9U U10G], the “exon inclusion enrichment index” value came to 0.0345.
As for AGUUAUAUUAGGGAGCUCCAGCACAGUGAAAUGGACAGAAGGGCAGAGCAA [G5A C6U U7A G8U C9U U10A], the figure is 0.00135; as for AGUUAUAUAUGGGAGCUCCAGCACAGUGAAACGGACAGAAGGGCAGAGCAA [G5A C6U U7A G8U C9A U32C], 0.14.
Regarding AGUUAUAUAUGGGAGCUCCAGCACAGUGAAAGGGACAGAAGGGCAGAGCAA [G5A C6U U7A G8U C9A U32G], the “exon inclusion enrichment index” value came to 0.0013.
The result for AGUUAUAUAUGGGAGCUCCAGCACAGUGAAAAGGACAGAAGGGCAGAGCAA [G5A C6U U7A G8U C9A U32A] reads 0.0571.
As to AGUUAUAUAUGGGAGCUCCAGCACAGUGAAAUGGACAGAAGGGCAUUGCAA [G5A C6U U7A G8U C9A G46U A47U], the “exon inclusion enrichment index” value was found to be 0.0891.
As for AGUUAUAUAUGGGAGCUCCAGCACAGUGAAAUGGACAGAAGGGCAUGGCAA [G5A C6U U7A G8U C9A G46U A47G], the figure is 0.0512; as for AGUUAUAUAUGGGAGCUCCAGCACAGUGAAAUGGACAGAAGGGCAUCGCAA [G5A C6U U7A G8U C9A G46U A47C], 0.376; as for AGUUAUAUAUGGGAGCUCCAGCACAGGCAAAUGGACAGAAGGGCAGAGCAA [G5A C6U U7A G8U C9A U27G G28C], 0.0308.
For AGUUAUAUAUGGGAGCUCCAGCACAGGUAAAUGGACAGAAGGGCAGAGCAA [G5A C6U U7A G8U C9A U27G G28U], the “exon inclusion enrichment index” value came out at 0.00125.
As for AGUUAUAUAUGGGAGCUCCAGCACAGGAAAAUGGACAGAAGGGCAGAGCAA [G5A C6U U7A G8U C9A U27G G28A], the figure is 0.12; as for AGUUAUGGAUGGGAGCUCCAGCACAGUGAAAUGGACAGAAGGGCAGAGCAA [G5A C6U U7G C9A], 0.561.
Turning to AGUUAUGUAUGGGAGCUCCAGCACAGUGAAAUGGACAGAAGGGCAGAGCAA [G5A C6U U7G G8U C9A], the “exon inclusion enrichment index” value came to 0.144.
